Measured values from patent publication US12138285B2, “Cholesterol reducing compositions and methods of use thereof” (The Broad Institute, Inc., priority 2019, dated 2024).
“Also recorded” adds a separate entry of the source.

Columns and labels:
Format in all cases: biochemical
cholesterol [1] = test: Lysate experiments for cholesterol oxidoreductase activity (E. coli BL21 lysates expressing COR/HSD enzymes), substrate cholesterol; conditions: E. coli lysate expressing the enzyme, 100 μM cholesterol, 100 μM NADP+ and NAD+, 37° C. 12 h, LC-MS
Protocol: (§1) Candidate cholesterol oxidoreductase genes were amplified from genomic DNA (for E. coprostanoligenes) and cloned into pET28b. DNA was extracted from stool samples (DNeasy PowerSoil Kit, Qiagen) (for CAG:217, CAG:251 and CAG:341) or purchased from Genewiz (Ordered sequences are listed in Table 6). PCR reactions were performed with Phusion High Fidelity polymerase, and PCR products were purified (Zymoclean gel DNA recovery kit, Zymo research). The resulting gene products were assembled into pET28b using Gibson assembly and transformed into Stellar™ Competent Cells. The identities of the constructs were confirmed with DNA sequencing and transformed into E. coli BL21 strains for expression. All constructs were grown in LB with kanamycin (50 μg/mL) with the exception of the strain expressing the homolog from CAG:180 which required growth in TB for protein expression. […]
(§2) 500 mL of a culture of E. coli BL21 expressing one of the cholesterol oxidoreductase homologs were pelleted by centrifugation (20 min at 7,000 g and 4° C.), resuspended in 10 mL of ice-cold phosphate-buffered saline containing one cOmplete Protease Inhibitor cocktail tablet (Roche Diagnostics) and lysed by a cell disruptor (EmulsiFlex-C3, Avestin). […] After incubation at 37° C. for 12 h, the reaction mixtures were frozen until being analyzed using LC-MS. […]

coprostanol = test: Lysate experiments for cholesterol oxidoreductase activity, substrate coprostanol; conditions: E. coli lysate expressing the enzyme, 100 μM coprostanol, 100 μM NADP+ and NAD+, 37° C. 12 h, LC-MS
Protocol: as §1, §2

[2] = tested on: primary bile acids cholic acid and chenodeoxycholic acid; test: Lysate experiments for cholesterol oxidoreductase activity, substrate primary bile acids; conditions: E. coli lysate expressing the enzyme
Protocol: FIG. 12A-12B CORs from human-associated gut microbes accept cholesterol and coprostanol but not primary bile acids. Activity assay with E. coli lysates (PBS, pH=7.4) expressing one of the cholesterol oxidoreductase enzymes from human-associated microbes with FIG. 12A. […] EIC for the products of both reactions are shown.
500 mL of a culture of E. coli BL21 expressing one of the cholesterol oxidoreductase homologs were pelleted by centrifugation (20 min at 7,000 g and 4° C.), resuspended in 10 mL of ice-cold phosphate-buffered saline containing one cOmplete Protease Inhibitor cocktail tablet (Roche Diagnostics) and lysed by a cell disruptor (EmulsiFlex-C3, Avestin). Cell debris was removed by ultracentrifugation (30 min at 20,000 g and 4° C.). Protein expression was confirmed by SDS-PAGE analysis using 4-20% Mini-PROTEAN TGX gels (Bio-Rad Laboratories). Gels were stained with Coomassie Blue for visualization. The clarified supernatant was used directly in the cell lysate assay described below. Cholesterol or coprostanol (5 μL of a 10 mM solution of cholesterol or coprostanol in methanol) was added to 500 μL of clarified supernatant with 100 μM of NADP^+ and NAD^+. After incubation at 37° C. for 12 h, the reaction mixtures were frozen until being analyzed using LC-MS.

cholesterol [3] = test: In vitro activity assay of purified N-terminal His-tagged ECOP170 (cofactor dependence); conditions: purified enzyme 1.5 μM, HEPES pH 7.5, 100 μM cholesterol, 100 μM NADP+ or NAD+
Protocol: FIG. 11 In vitro activity assay of purified N-terminal His-tagged ECOP170 expressed in BL21 E. coli. Activity assay with ECOP170 (1.5 μM) in HEPES (pH=7.5, 50 mM, 300 mM NaCl) with 100 μM cholesterol and either 100 μM of NADP^+ (red) or 100 μM of NAD^+ (blue). EICs of 2 (rt 2.60, 385.244→108.988) are shown for both conditions.
Proteins were overexpressed using the procedure described above. Cells from 200 mL of culture were pelleted by centrifugation, resuspended in 10 mL of ice-cold lysis buffer (300 mM NaCl, 10 mM imidazole, 50 mM HEPES, pH 7.5) containing one cOmplete Protease Inhibitor cocktail tablet, and lysed by 4 min of continuous passage through a cell disruptor (EmulsiFlex-C3, Avestin) at 15,000 lbs per square inch. Cell debris was removed by ultracentrifugation (20 min at 20,000×g and 4° C.), and the cell-free extract was applied to 0.5 mL of HisPur Ni-NTA Resin (Thermo Scientific) pre-equilibrated with lysis buffer by gentle rocking at 4° C. for 2 h. Non-absorbed materials and weakly bound proteins were removed by washing the column with 2×25 mL of wash buffer (300 mM NaCl, 20 mM imidazole, 50 mM HEPES, pH 7.5). His6-tagged protein was eluted with 5 mL of elution buffer (300 mM NaCl, 200 mM imidazole, 50 mM HEPES, pH 7.5). […]

B1: ECOP170: 3β-hydroxysteroid dehydrogenase / cholesterol oxidoreductase (COR, IsmA) enzyme from E. coprostanoligenes (protein)
chain: MSTCWLQGKTVVVTGASGGMGAGIAATLIKKHGCTVIGVARNEKKMLKFVDELGETYAKQFSYELFDVSSKENWEKFAEELQEKGVKVDVLINNAGILPKFKRFDRYSYEEIERAMNINFYSCVYSVKTMLPMLLQSSTPAIINIDSSAALMTLAGTSMYSASKAALKGFTEALRVEFQGKMFVGLVCPGFTKTDIFSGQGDADMSNGAKVMDMISTDCDKMVKMIMFGIEHKTPMQVHGFDAHAMSVFNRLMPVYGSKLFSSIMRMSNVDIFKEVFSD
- oxidation of cholesterol (1) to cholestenone (2) (cholesterol [1]): converts cholesterol (1) to cholestenone (2); also recorded: oxidized cholesterol to 2; also recorded: oxidized cholesterol to cholestenone
- oxidation of coprostanol (4) to coprostanone (3) (coprostanol): converts coprostanol (4) to coprostanone (3); also recorded: catalyzed the oxidation of coprostanol (4) to coprostanone (3); also recorded: showed activity towards coprostanol
- oxidation of primary bile acids cholic acid and chenodeoxycholic acid to keto bile acids [2]: unable to oxidize the primary bile acids cholic acid and chenodeoxycholic acid; also recorded: did not oxidize the primary bile acids cholic acid and chenodeoxycholic acid
- cofactor dependence of cholesterol oxidation (cholesterol [3]): showed a strict dependence on NADP^+ and not NAD^+
